Reference: patent publication US20220251222A1, “IL-6Ralpha/IL-8R BISPECIFIC BINDING AGENTS FOR INHIBITING CANCER CELL MIGRATION” (The Johns Hopkins University, priority 2019, published 2022)

T1: human IL-6Rα ECD (Homo sapiens, UniProt P08887)
T1 construct: residues 89-303 of the mature protein; hexahistidine (C); made in house; host or cells: HEK 293F
T1 sequence (P08887 108-322): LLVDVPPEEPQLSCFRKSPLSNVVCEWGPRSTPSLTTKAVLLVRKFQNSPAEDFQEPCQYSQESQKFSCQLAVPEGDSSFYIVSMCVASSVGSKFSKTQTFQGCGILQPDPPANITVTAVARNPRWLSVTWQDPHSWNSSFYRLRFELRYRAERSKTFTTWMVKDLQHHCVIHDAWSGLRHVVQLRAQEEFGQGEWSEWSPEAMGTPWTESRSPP

T2: IL-6 binding to IL-6Rα (Homo sapiens, UniProt P08887)
T2 construct: expressed in transfected cells; host or cells: HEK 293T, lentiviral transduction (IL-6Rα+/IL-8R−)
T2 sequence (P08887 20-468): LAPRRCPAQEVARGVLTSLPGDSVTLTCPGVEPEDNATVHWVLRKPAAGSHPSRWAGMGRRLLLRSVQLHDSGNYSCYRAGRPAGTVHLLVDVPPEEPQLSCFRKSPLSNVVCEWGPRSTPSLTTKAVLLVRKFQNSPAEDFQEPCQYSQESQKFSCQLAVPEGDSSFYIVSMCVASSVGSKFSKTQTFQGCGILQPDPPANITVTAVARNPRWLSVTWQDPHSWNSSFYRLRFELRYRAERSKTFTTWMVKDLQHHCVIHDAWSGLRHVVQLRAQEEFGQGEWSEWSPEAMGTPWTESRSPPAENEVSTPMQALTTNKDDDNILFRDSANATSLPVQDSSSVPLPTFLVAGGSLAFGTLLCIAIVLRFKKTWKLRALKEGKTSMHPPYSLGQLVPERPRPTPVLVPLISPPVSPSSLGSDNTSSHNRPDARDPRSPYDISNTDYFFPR

T3: IL-6/IL-6Rα interaction (Homo sapiens, UniProt P08887)
T3 construct: residues 89-303 of the mature protein; hexahistidine (C); made in house; host or cells: HEK 293F (IL-6Rα ECD)
T3 sequence (P08887 108-322): T1 sequence (P08887 108-322)

T4: IL-8R (Homo sapiens, UniProt P25025)
T4 construct: expressed in transfected cells; host or cells: HEK 293T, lentiviral transduction (pCDH backbone)
T4 sequence (P25025 1-360): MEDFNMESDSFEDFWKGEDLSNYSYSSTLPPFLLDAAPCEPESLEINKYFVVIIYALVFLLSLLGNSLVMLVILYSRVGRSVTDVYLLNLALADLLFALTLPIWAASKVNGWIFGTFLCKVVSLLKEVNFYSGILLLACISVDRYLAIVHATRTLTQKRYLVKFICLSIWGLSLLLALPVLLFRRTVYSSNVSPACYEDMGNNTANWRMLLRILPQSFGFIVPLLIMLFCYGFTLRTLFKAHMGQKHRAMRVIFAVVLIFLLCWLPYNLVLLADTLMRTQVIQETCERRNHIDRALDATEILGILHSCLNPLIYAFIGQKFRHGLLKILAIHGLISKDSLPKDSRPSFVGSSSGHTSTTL

B1: 10H2: anti-IL-8RB monoclonal antibody, expressed as hIgG1 (antibody, V domains shown)
VH: EVQLVETGGRLVQPKGSLKLSCAVSGITFKTNAMNWVRQAPGKGLEWVARIRTKSYNYATYYADSVKDRFTISRDDSQSILYLQMNNLKTEDTAMYHCVREGRWGQGTLVTVSA
VL: QAVVTQESALTTSPGETVTLTCRSSTGAVTTSNYANWVQEKPDHLFTGLIGGTNNRPPGVPARFSGSLIGDKAALTITGAQIEDEAIYFCALWYSNHLVFGGGTKLTVL
B2: IL-6Rα ECD: recombinant human IL-6Rα extracellular domain, residues 89-303, biotinylated (protein)
chain: LLVDVPPEEPQLSCFRKSPLSNVVCEWGPRSTPSLTTKAVLLVRKFQNSPAEDFQEPCQYSQESQKFSCQLAVPEGDSSFYIVSMCVASSVGSKFSKTQTFQGCGILQPDPPANITVTAVARNPRWLSVTWQDPHSWNSSFYRLRFELRYRAERSKTFTTWMVKDLQHHCVIHDAWSGLRHVVQLRAQEEFGQGEWSEWSPEAMGTPWTESRSPPLNDIFEAQKIEWHEHHHHHH

Key:
[1] = target: T1, human IL-6Rα ECD; test: Bio-layer interferometry (BLI) binding to immobilized IL-6Rα ECD; details: immobilized biotinylated IL-6Rα ECD, PBSA, 25° C., equilibrium titration
Protocol: Biotinylated human IL-6Rα ECD was immobilized to streptavidin-coated tips for analysis on an Octet® Red96 BLI instrument (ForteBio). Less than 5 signal units (nm) of receptor was immobilized to minimize mass transfer effects. Tips were exposed to serial dilutions of the anti-IL-6R antibody tocilizumab, the anti-IL-8R antibody 10H2, BS1, or BS2 in a 96-well plate for 300 s and dissociation was measured for 600 s. Surface regeneration for all interactions was conducted using 15 s exposure to 0.1 M glycine pH 3.0. Experiments were carried out in PBSA (phosphate-buffered saline [PBS] pH 7.3 plus 0.1% bovine serum albumin [BSA, Thermo]) at 25° C. Data was visualized and processed using the Octet® Data Analysis software version 7.1 (ForteBio). Equilibrium titration curve fitting and equilibrium dissociation constant (KD) value determination was implemented in GraphPad Prism software using a first-order logistic model. Experiments were reproduced two times with similar results.

[2] = target: T2, IL-6 binding to IL-6Rα; test: IL-6 cell surface binding inhibition on IL-6Rα+/IL-8R− HEK 293T cells; details: IL-6Rα+/IL-8R− 293 T cells, biotinylated IL-6 100 nM
Protocol: Cells were then washed and incubated with 1:200 dilution of Alexa Fluor 647-conjugated streptavidin (Fisher Scientific, cat #: S21374) in PBSA for 15 min at 4° C. […] Curves were fitted to a first-order logistic model and IC50 values were calculated using GraphPad Prism data analysis software. Mean fluorescence intensity (MFI) of unstimulated cells was subtracted. […]

[3] = target: T3, IL-6/IL-6Rα interaction; test: Yeast cell surface competition of IL-6/IL-6Rα binding; details: IL-6-displaying yeast, biotinylated IL-6Rα ECD 300 nM
Protocol: Approximately 1×10^5 human IL-6-displaying yeast per well were plated in a 96-well plate and washed with PBSA. Yeast cells were incubated with saturating concentrations of biotinylated human IL-6Rα (300 nM) and serial dilutions of unlabeled competitor antibody (either the anti-IL-6R antibody tocilizumab, the anti-IL-8R antibody 10H2, BS1, or BS2) in PBSA for 2 hours at room temperature. Cells were then washed and stained with a 1:200 dilution of Alexa647-conjugated streptavidin (Thermo) in PBSA for 15 min at 4° C. Cells were washed again and assessed for human IL-6Rα binding on a CytoFLEX flow cytometer (Beckman Coulter). Background-subtracted fluorescent signal as a fraction of receptor subunit binding in the absence of competitor antibody was plotted. Curves were fitted to a first order logistic model and half maximal inhibitory concentrations (IC50s) were computed using GraphPad Prism. Assays were performed in triplicate and repeated two times with consistent results.

[4] = target: T4, IL-8R; test: Cell surface binding on IL-6Rα−/IL-8R+ HEK 293T cells (flow cytometry); details: 2 hr at 4° C.
From the text: GeneJuice (Sigma Aldrich) was used as the transfection reagent.
Mean fluorescence intensity (MFI) of unstimulated cells was subtracted.

[5] = tested on: IL-6-mediated phosphorylation of STAT3; test: IL-6 signaling inhibition assay (STAT3 phosphorylation) in HepG2 cells; type: cell-based, human; details: IL-6 10 nM, 20 min at 37° C.
Protocol: HepG2 cells were then fixed with 1.6% PFA, permeabilized with methanol and incubated with 1:50 dilution of Alexa Fluor 647 conjugated anti-pSTAT3 antibody (BD Biosciences, clone 4/P-STAT3) in PBSA for 2 h at room temperature. […] IC50 values were calculated using a first order logistic fitting models in GraphPad Prism data analysis software. Mean fluorescence intensity (MFI) of unstimulated cells was subtracted. Experiments were conducted in triplicate and performed twice times with similar results.

[6] = target: T5, Human IL-6 (Homo sapiens, UniProt P05231); test: Yeast cell surface affinity titration of IL-6Rα ECD on IL-6-displaying yeast; type: binding; details: 2 hours at room temperature, flow cytometry; read-out: KD of soluble IL-6Rα ECD on IL-6-displaying yeast
T5 construct: Human IL-6 (residues 3-185) was cloned into the pCT302 vector; made in house; host or cells: yeast (surface display)
Protocol: Human IL-6 (residues 3-185) was cloned into the pCT302 vector and presented on the surface of yeast, as described previously. (See Boder E T, Wittrup K D. Yeast surface display for screening combinatorial polypeptide libraries. Nat Biotechnol. 1997 June; 15(6):553-557. PMID: 9181578). Yeast displaying human IL-6 were incubated in PBSA containing serial dilutions of recombinant IL-6Rα ECD for 2 hours at room temperature. Cells were then washed and stained with a 1:200 dilution of Alexa647-conjugated streptavidin (Thermo) in PBSA for 15 min at 4° C. After a final wash, cells were analyzed for antibody binding using a CytoFLEX flow cytometer (Beckman Coulter).

T5 sequence (P05231 30-212): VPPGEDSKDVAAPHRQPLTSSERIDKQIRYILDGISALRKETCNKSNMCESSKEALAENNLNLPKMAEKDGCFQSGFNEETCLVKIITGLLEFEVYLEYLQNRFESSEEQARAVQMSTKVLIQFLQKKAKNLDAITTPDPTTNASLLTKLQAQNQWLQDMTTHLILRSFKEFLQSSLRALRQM

| Molecule | binding affinity (KD) to IL-6Rα via BLI [1] | IC50, competition with IL-6 binding to IL-6Rα [2] | IC50, inhibition of IL-6/IL-6Rα binding [3] | KD, binding to IL-8R on cells [4] | IC50, inhibition of STAT3 phosphorylation [5] | Kd [6] |
| --- | --- | --- | --- | --- | --- | --- |
| B1 | did not engage IL-6Rα | no inhibitory effects | did not compete | only recognized IL-8R^+ cells | did not effect inhibition | – |
| B2 | – | – | – | – | – | 88 nM |
